In US20090131309A1, “ICA512 COUPLES INSULIN SECRETION AND GENE EXPRESSION IN BETA-CELLS” (Technische Universität Dresden Medizinizche Fakultät Carl …, priority 2004, published 2009):
Residues, ends and D or L forms follow the SMILES beside them. *: point of attachment. Cbz = O=C(OCc1ccccc1)*

Experiments:
[1] = system: T1, 6X histidine-tagged human ICA512 cytoplasmic domain (residues 601-979)
T1 sequence: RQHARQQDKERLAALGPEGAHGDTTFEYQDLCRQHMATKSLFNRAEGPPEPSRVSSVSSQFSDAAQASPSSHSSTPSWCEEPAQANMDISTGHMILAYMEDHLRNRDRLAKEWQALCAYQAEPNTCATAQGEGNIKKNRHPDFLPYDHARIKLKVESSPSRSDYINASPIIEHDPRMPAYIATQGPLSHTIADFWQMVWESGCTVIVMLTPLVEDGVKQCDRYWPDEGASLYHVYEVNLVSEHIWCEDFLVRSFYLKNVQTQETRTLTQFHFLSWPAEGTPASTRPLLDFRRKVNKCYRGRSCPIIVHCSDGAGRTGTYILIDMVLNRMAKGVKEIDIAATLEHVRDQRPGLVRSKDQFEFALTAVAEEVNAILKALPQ

[2] = molecular target: ICA512-TMF (endogenous in INS-1 cells) (rat) (UniProt Q63259); test: cell-based or functional assay
μ-calpain = molecular target: T2, μ-calpain (Homo sapiens, UniProt P07384); assay type: biochemical; details: bacterially expressed ICA512 (601-979), 50 μM Ca2+, 30 μM inhibitor
T2 sequence (P07384 1-714): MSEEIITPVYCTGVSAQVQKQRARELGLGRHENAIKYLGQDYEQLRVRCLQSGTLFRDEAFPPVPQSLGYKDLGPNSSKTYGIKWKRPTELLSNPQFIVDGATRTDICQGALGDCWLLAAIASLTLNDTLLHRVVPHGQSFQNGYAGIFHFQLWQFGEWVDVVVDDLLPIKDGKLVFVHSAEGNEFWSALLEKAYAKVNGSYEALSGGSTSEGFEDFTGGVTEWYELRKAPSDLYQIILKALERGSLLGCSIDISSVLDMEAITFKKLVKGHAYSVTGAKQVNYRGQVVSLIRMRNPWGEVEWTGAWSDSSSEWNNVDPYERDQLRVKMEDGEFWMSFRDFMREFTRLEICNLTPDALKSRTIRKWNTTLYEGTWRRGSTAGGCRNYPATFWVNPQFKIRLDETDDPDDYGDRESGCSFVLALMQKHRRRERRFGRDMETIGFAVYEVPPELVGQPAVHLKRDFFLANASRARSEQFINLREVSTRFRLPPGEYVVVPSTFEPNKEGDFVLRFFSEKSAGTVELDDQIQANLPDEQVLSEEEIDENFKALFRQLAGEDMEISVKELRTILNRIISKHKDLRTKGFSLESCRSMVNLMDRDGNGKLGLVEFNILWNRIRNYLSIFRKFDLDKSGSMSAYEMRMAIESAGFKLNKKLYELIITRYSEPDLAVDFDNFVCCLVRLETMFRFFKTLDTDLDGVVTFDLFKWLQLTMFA
T2 sequence (P04632 1-268 partner): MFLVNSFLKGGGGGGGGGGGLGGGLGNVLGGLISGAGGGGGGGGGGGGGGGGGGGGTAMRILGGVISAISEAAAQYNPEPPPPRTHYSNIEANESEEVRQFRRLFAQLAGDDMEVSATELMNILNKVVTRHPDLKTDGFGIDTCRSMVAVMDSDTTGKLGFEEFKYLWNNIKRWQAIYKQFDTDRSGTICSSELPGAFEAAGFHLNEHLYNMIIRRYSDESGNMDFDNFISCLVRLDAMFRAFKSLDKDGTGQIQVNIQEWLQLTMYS
Description: In-vitro μ-calpain cleavage. 3 μg bacterially expressed His-ICA512 cytoplasmic domain (residues 601-979) (Ort et al., 2001) were incubated in 20 μl buffer (20 mM Tris-HCl pH 7.5, 50 μM CaCl2, 1 mM L-cysteine) at room temperature with or without 150 ng μ-calpain (Calbiochem) and 30 μM calpeptin or MG-132 for 1, 5, 15 or 45 minutes. The reactions were stopped by addition of an equal volume of 2×SDS sample buffer. Following SDS-PAGE, proteins were stained with Coomassie Blue (Bio-Rad).

PIASy = molecular target: T3, PIASy (Mus musculus, UniProt Q9JM05); test: GST pull-down assay with PIASy; assay type: binding; details: in-vitro transcribed and translated 35S-labeled partner, glutathione-sepharose beads
T3 construct: made in house; host or cells: in-vitro transcription-translation (T7 coupled system, Promega)
T3 sequence (Q9JM05 2-507): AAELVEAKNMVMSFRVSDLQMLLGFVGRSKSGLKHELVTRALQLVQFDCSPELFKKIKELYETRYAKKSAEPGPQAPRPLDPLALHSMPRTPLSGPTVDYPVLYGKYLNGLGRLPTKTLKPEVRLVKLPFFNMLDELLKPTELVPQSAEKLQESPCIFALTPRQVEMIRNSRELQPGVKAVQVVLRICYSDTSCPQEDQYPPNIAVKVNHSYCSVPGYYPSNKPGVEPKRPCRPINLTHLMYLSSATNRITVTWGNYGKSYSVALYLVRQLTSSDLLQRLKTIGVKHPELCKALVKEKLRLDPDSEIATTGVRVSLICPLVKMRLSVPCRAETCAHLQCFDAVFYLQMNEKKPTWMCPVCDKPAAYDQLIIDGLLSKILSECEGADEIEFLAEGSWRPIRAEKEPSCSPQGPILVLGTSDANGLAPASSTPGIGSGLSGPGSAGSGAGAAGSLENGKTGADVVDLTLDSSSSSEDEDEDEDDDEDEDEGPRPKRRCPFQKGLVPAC
Description: GST-Pull Down Assays. ICA512 (601-979) cDNA in pET28a (invitrogen) (29) was in vitro transcribed and translated using the T7/coupled transcription-translation system (Promega, Madison, Wis.) according to manufacture's instructions. PIAS1-GST and PIASy-GST (a kind gift of Rudolf Grosschedl) were expressed in bacteria as previously described (21, 30). Next, [^35S]-methionine-labeled ICA512 (601-979) was incubated overnight at 4° C. in GST binding buffer (120 mM NaCl, 50 mM Tris pH8, 0.25% Nonidet P-40, 1 mM DTT, 1 mM PMSF) with GST-fusion proteins or GST alone coupled to glutathione-sepharose beads (Amersham, Freiburg, Germany). Beads were washed five times with binding buffer, and then eluted with 10 mM reduced glutathione. The eluate was subjected to SDS-PAGE and analyzed by autoradiography.
Pull-down assays. GST-ICA512 (601-979), GST-ICA512 (700-979), and GST-ICA512 (800-979) were bacterially expressed as described^26. [^35S]-methionine-PIASy, -ICA512 (601-979), -p53 and -firefly luciferase were in-vitro transcribed and translated with the T7/coupled transcription-translation system (Promega) according to the manufacturer's instructions. [^35S]-PIASy was incubated with GST-ICA512 proteins or GST, while [^35S]-ICA512 (601-979), [^35S]-p53 and [^35S]-firefly luciferase were incubated with MBP-Ubc9. Proteins were collected with glutathione-(Amersham) or amylose-(New England Biolabs) sepharose beads as described^38. Proteins eluted from beads with glutathione or maltose were analyzed by SDS-PAGE and autoradiography with a phosphoimager BAS1800 II (Fuji).

STAT5 = test: Firefly luciferase reporter assay for STAT activity (8GLE-CAS-FL) in INS-1 cells; assay type: cell-based, rat; details: co-transfected INS-1 cells, hGH stimulation
Description: Firefly luciferase assays. INS-1 cells were co-transfected with 8GLE-CAS-FL and one or two of the following plasmids: pEGFP, ICA512-CCF-GFP, ICA512-CCF(K/A^754)-GFP and PIASy-GFP. Two days after transfection, cells were incubated in low serum medium for 18 hrs, then stimulated with 20 nM hGH for 20 minutes, and finally left in resting buffer for 6 additional hours. Cells were harvested in 500 μl lysis reagent for luciferase assays (Promega) and 10 μl were used for measurement of luciferase activity in a Berthold luminometer. Each sample was performed in triplicate and the data represent the mean of at least 2 independent experiments.

µ-calpain (Calbiochem)
in-vitro cleavage of bacterially expressed ICA512 (601-979) by µ-calpain, Coomassie Blue staining [1]: Cleavage by µ-calpain was inhibited by calpeptin and MG-132, another inhibitor of cysteine proteases (FIG. 8)

rat µ-calpain (endogenous in INS-1 cells) (from UniProt P97571 1-713)
stimulus-dependent degradation of ICA512-TMF after siRNA knockdown of µ-calpain in INS-1 cells [2]: 1.6 fold

CC(C)C[C@@H](C=O)NC(=O)[C@H](CC(C)C)NC(=O)[C@H](CC(C)C)NC(=O)OCc1ccccc1 [MG-132] (Cbz-Leu-Leu-Leu-aldehyde)
Cleavage by μ-calpain (μ-calpain): inhibited

B1: GST-ICA512 (700-979): GST fusion which only contains the PTP domain (protein)
chain: EDHLRNRDRLAKEWQALCAYQAEPNTCATAQGEGNIKKNRHPDFLPYDHARIKLKVESSPSRSDYINASPIIEHDPRMPAYIATQGPLSHTIADFWQMVWESGCTVIVMLTPLVEDGVKQCDRYWPDEGASLYHVYEVNLVSEHIWCEDFLVRSFYLKNVQTQETRTLTQFHFLSWPAEGTPASTRPLLDFRRKVNKCYRGRSCPIIVHCSDGAGRTGTYILIDMVLNRMAKGVKEIDIAATLEHVRDQRPGLVRSKDQFEFALTAVAEEVNAILKALPQ
modifications: left off: a dimerising Fc or GST
notes: GST fusion which only contains the PTP domain
binding to PIASy in pull-down assay (PIASy): bound

B2: GST-ICA512 (601-979): GST fusion encompassing the entire ICA512 cytoplasmic domain (protein)
chain: T1 sequence
modifications: left off: a dimerising Fc or GST
notes: GST fusion encompassing the entire ICA512 cytoplasmic domain
binding to PIASy in pull-down assay (PIASy): bound

B3: ICA512-CCF(K/A^754)-GFP: ICA512-CCF-GFP construct in which Lys754 was replaced by alanine (protein)
chain: SQFSDAAQASPSSHSSTPSWCEEPAQANMDISTGHMILAYMEDHLRNRDRLAKEWQALCAYQAEPNTCATAQGEGNIKKNRHPDFLPYDHARIKLAVESSPSRSDYINASPIIEHDPRMPAYIATQGPLSHTIADFWQMVWESGCTVIVMLTPLVEDGVKQCDRYWPDEGASLYHVYEVNLVSEHIWCEDFLVRSFYLKNVQTQETRTLTQFHFLSWPAEGTPASTRPLLDFRRKVNKCYRGRSCPIIVHCSDGAGRTGTYILIDMVLNRMAKGVKEIDIAATLEHVRDQRPGLVRSKDQFEFALTAVAEEVNAILKALPQ
modifications: left off: large carriers
notes: ICA512-CCF-GFP construct in which Lys754 was replaced by alanine
STAT5 transcription activity (8GLE-CAS-FL luciferase) (STAT5): enhances its transcription activity less than ICA512-CCF-GFP

B4: GST-ICA512 (800-979): GST fusion which lacks the first 100 residues of the PTP domain (protein)
chain: ESGCTVIVMLTPLVEDGVKQCDRYWPDEGASLYHVYEVNLVSEHIWCEDFLVRSFYLKNVQTQETRTLTQFHFLSWPAEGTPASTRPLLDFRRKVNKCYRGRSCPIIVHCSDGAGRTGTYILIDMVLNRMAKGVKEIDIAATLEHVRDQRPGLVRSKDQFEFALTAVAEEVNAILKALPQ
modifications: left off: a dimerising Fc or GST
notes: GST fusion which lacks the first 100 residues of the PTP domain
binding to PIASy in pull-down assay (PIASy): did not bind
